These results are taken from US20260152568A1 (NECTIN THERAPEUTICS, published 2026).

The target of assay [1] is T1, human PVR (SPR of the humanized variants, Example 5) (human, UniProt P15151 21-343).
T1 sequence: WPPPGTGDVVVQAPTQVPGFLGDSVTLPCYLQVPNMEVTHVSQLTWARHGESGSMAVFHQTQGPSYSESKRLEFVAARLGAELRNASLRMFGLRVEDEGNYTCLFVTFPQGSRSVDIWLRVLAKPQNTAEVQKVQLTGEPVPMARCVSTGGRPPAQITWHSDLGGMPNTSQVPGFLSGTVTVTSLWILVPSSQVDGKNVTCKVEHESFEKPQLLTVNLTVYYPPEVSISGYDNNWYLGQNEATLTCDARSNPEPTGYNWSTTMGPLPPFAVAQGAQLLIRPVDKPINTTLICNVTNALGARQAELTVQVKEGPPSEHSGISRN
Briefly: SPR.

Assay [2] addresses T1, human PVR (SPR of the humanized …). Briefly: SPR; relative to N56E VH0/Vκ0. (In general: In SPR one partner is held on a chip, and binding of the other changes the refractive index at the surface.)

B1: IgG4(S241P)_N56E_VH2/Vκ4 (antibody, V domains shown)
VH: QVQLVQSGAEVKKPGASVKISCKATGYTFSNYWIEWIKQAPGQGLEWIGEIFPGSGRINFNEKFKGRATFTADTSIDTTYMELSRLRSDDTAVYYCARTKIYGNSFDYWGQGTLVTVSS
VL: DIQMTQSPSSLSASVGDRVTITCRASQDVGTAVAWYQQKPGKAPKSLIYWASSRHEGVPSRFSGSGSGTDFTLTISSLQPEDFATYFCQQYSRYPLTFGQGTKLEIK
notes: humanized 5B9 variant with Vk4; also called VH2/Vk4
As for B1, binding in assay [1] was put at a Kd of 78.3 nM. The “Relative KD” value in assay [2] came to 14.1.

B2: IgG4(S241P)_N56E_VH5/Vκ4 (antibody, V domains shown)
VH: QVQLVQSGAEVKKPGASVKVSCKATGYTFSNYWIEWVRQAPGQGLEWMGEIFPGSGRINFNEKFKGRVTFTADTSISTAYMELSRLRSDDTAVYYCARTKIYGNSFDYWGQGTLVTVSS
VL: DIQMTQSPSSLSASVGDRVTITCRASQDVGTAVAWYQQKPGKAPKSLIYWASSRHEGVPSRFSGSGSGTDFTLTISSLQPEDFATYFCQQYSRYPLTFGQGTKLEIK
notes: humanized 5B9 variant with Vk4; also called VH5/Vk4
In assay [1], B2 registered a Kd of 76.8 nM. Besides, the “Relative KD” value in assay [2] is 13.9.

B3: humanized 5B9 variant VH2/VK1 (antibody, V domains shown)
VH: QVQLVQSGAEVKKPGASVKISCKATGYTFSNYWIEWIKQAPGQGLEWIGEIFPGSGRINFNEKFKGRATFTADTSIDTTYMELSRLRSDDTAVYYCARTKIYGNSFDYWGQGTLVTVSS
VL: DIMMTQSPSFLSASVGDRVTITCKASQDVGTAVVWYQQKPGKAPKLLIYWASSRHEGVPDRFTGSGSGTDFTLTISSLQSEDFADYFCQQYSRYPLTFGQGTKLEIK
For the molecule B3, binding in assay [1] was characterised by a dissociation constant (Kd) of 3.96 nM. Further, the “Relative KD” value in assay [2] is 0.71.

B4: IgG4(S241P)_N56E_VH3/Vκ4 (antibody, V domains shown)
VH: QVQLVQSGAEVKKPGASVKVSCKATGYTFSNYWIEWIKQAPGQGLEWIGEIFPGSGRINFNEKFKGRVTFTADTSISTTYMELSRLRSDDTAVYYCARTKIYGNSFDYWGQGTLVTVSS
VL: DIQMTQSPSSLSASVGDRVTITCRASQDVGTAVAWYQQKPGKAPKSLIYWASSRHEGVPSRFSGSGSGTDFTLTISSLQPEDFATYFCQQYSRYPLTFGQGTKLEIK
notes: humanized 5B9 variant with Vk4, as IgG4; also called VH3/Vk4
B4 gave an equilibrium dissociation constant (Kd) in assay [1] of 75.2 nM. The “Relative KD” value in assay [2] amounted to 13.6.

B5: humanized 5B9 variant VH4/VK1 (antibody, V domains shown)
VH: QVQLVQSGAEVKKPGASVKVSCKATGYTFSNYWIEWVRQAPGQGLEWIGEIFPGSGRINFNEKFKGRVTFTADTSISTTYMELSRLRSDDTAVYYCARTKIYGNSFDYWGQGTLVTVSS
VL: DIMMTQSPSFLSASVGDRVTITCKASQDVGTAVVWYQQKPGKAPKLLIYWASSRHEGVPDRFTGSGSGTDFTLTISSLQSEDFADYFCQQYSRYPLTFGQGTKLEIK
In assay [1], B5 gave a dissociation constant Kd of 4.62 nM. Further, in assay [2], the “Relative KD” value turned out to be 0.83.

B6: humanized 5B9 variant VH1/VK2 (antibody, V domains shown)
VH: QVQLVQSGAELKKPGASVKISCKATGYTFSNYWIEWIKQAPGQGLEWIGEIFPGSGRINFNEKFKGRATFTADTSIDTTYMQLSSLTSDDSAVYYCARTKIYGNSFDYWGQGTTVTVSS
VL: DIQMTQSPSSLSASVGDRVTITCKASQDVGTAVVWYQQKPGKAPKLLIYWASSRHEGVPDRFSGSGSGTDFTLTISSLQPEDFADYFCQQYSRYPLTFGQGTKLEIK
In assay [1], B6 showed a Kd of 4.01 nM. Besides, the “Relative KD” value in assay [2] came out at 0.72.

B7: humanized 5B9 variant VH1/VK3 (antibody, V domains shown)
VH: QVQLVQSGAELKKPGASVKISCKATGYTFSNYWIEWIKQAPGQGLEWIGEIFPGSGRINFNEKFKGRATFTADTSIDTTYMQLSSLTSDDSAVYYCARTKIYGNSFDYWGQGTTVTVSS
VL: DIQMTQSPSSLSASVGDRVTITCRASQDVGTAVVWYQQKPGKAPKLLIYWASSRHEGVPSRFSGSGSGTDFTLTISSLQPEDFATYFCQQYSRYPLTFGQGTKLEIK
In assay [1], B7 gave a Kd of 4.98 nM. Moreover, the “Relative KD” value in assay [2] was 0.9.

B8: humanized 5B9 variant VH3/VK1 (antibody, V domains shown)
VH: QVQLVQSGAEVKKPGASVKVSCKATGYTFSNYWIEWIKQAPGQGLEWIGEIFPGSGRINFNEKFKGRVTFTADTSISTTYMELSRLRSDDTAVYYCARTKIYGNSFDYWGQGTLVTVSS
VL: DIMMTQSPSFLSASVGDRVTITCKASQDVGTAVVWYQQKPGKAPKLLIYWASSRHEGVPDRFTGSGSGTDFTLTISSLQSEDFADYFCQQYSRYPLTFGQGTKLEIK
Consider B8, for which the Kd in assay [1] was 4.56 nM. Further, the “Relative KD” value in assay [2] was 0.82.

As a reminder, the Kd is a measure of binding affinity in units of concentration. A low value points to tighter binding.
